This data set deals with GST-DDX6 (human). In words: EMSA.

As to CUG-200 RNA, the Kd (usually a measure of binding affinity in units of concentration) is under 250 nM.

For the origin of these results see PMC4066779.
